From patent publication US20230272119A1 (MARENGO THERAPEUTICS, published 2023)

How the values were obtained:
[1] = biological target: T1, α-TRAILR2 heavy-LgBiT (SEQ ID NO: 146); experiment: NanoBiT, HC-LgBiT:LC-SmBiT:competing LC 1:1:1; competing kappa LC m24 (SEQ ID NO: 115)
T1 construct: VH-CH1-linker-LgBiT; germline VH3-20*01

[2] = biological target: T1, α-TRAILR2 heavy-LgBiT (SEQ ID NO: 146); experiment: NanoBiT, HC-LgBiT:LC-SmBiT:competing LC 1:1:1; competing kappa LC m18 (SEQ ID NO: 109)
[3] = biological target: T1, α-TRAILR2 heavy-LgBiT (SEQ ID NO: 146); experiment: NanoBiT, HC-LgBiT:LC-SmBiT:competing LC 1:1:1; competing kappa LC m12 (SEQ ID NO: 103)
[4] = biological target: T1, α-TRAILR2 heavy-LgBiT (SEQ ID NO: 146); experiment: NanoBiT, HC-LgBiT:LC-SmBiT:competing LC 1:1:1; competing kappa LC m42 (SEQ ID NO: 133)
[5] = biological target: T1, α-TRAILR2 heavy-LgBiT (SEQ ID NO: 146); experiment: NanoBiT, HC-LgBiT:LC-SmBiT:competing LC 1:1:1; competing kappa LC m6 (SEQ ID NO: 97)
[6] = biological target: T1, α-TRAILR2 heavy-LgBiT (SEQ ID NO: 146); experiment: NanoBiT, HC-LgBiT:LC-SmBiT:competing LC 1:1:1; competing kappa LC m15 (SEQ ID NO: 106)
[7] = biological target: T1, α-TRAILR2 heavy-LgBiT (SEQ ID NO: 146); experiment: NanoBiT, HC-LgBiT:LC-SmBiT:competing LC 1:1:1; competing kappa LC m21 (SEQ ID NO: 112)
[8] = biological target: T2, α-activin receptors heavy-LgBiT (SEQ ID NO: 149); experiment: NanoBiT, HC-LgBiT:LC-SmBiT:competing LC 1:1:1; competing kappa LC m24 (SEQ ID NO: 115)
T2 construct: VH-CH1-linker-LgBiT; germline VH1-46*01

[9] = biological target: T2, α-activin receptors heavy-LgBiT (SEQ ID …); experiment: NanoBiT, HC-LgBiT:LC-SmBiT:competing LC 1:1:1; competing kappa LC m12 (SEQ ID NO: 103)
[10] = biological target: T2, α-activin receptors heavy-LgBiT (SEQ ID …); experiment: NanoBiT, HC-LgBiT:LC-SmBiT:competing LC 1:1:1; competing kappa LC m33 (SEQ ID NO: 124)
[11] = biological target: T2, α-activin receptors heavy-LgBiT (SEQ ID …); experiment: NanoBiT, HC-LgBiT:LC-SmBiT:competing LC 1:1:1; competing kappa LC m9 (SEQ ID NO: 100)
[12] = biological target: T2, α-activin receptors heavy-LgBiT (SEQ ID …); experiment: NanoBiT, HC-LgBiT:LC-SmBiT:competing LC 1:1:1; competing kappa LC m42 (SEQ ID NO: 133)
[13] = biological target: T2, α-activin receptors heavy-LgBiT (SEQ ID …); experiment: NanoBiT, HC-LgBiT:LC-SmBiT:competing LC 1:1:1; competing kappa LC m6 (SEQ ID NO: 97)
[14] = biological target: T2, α-activin receptors heavy-LgBiT (SEQ ID …); experiment: NanoBiT, HC-LgBiT:LC-SmBiT:competing LC 1:1:1; competing kappa LC m27 (SEQ ID NO: 118)
[15] = biological target: T3, α-IL12β heavy-LgBiT (SEQ ID NO: 161); experiment: NanoBiT, HC-LgBiT:LC-SmBiT:competing LC 1:1:1; competing kappa LC m18 (SEQ ID NO: 109)
T3 construct: VH-CH1-linker-LgBiT; germline VH3-33*01

[16] = biological target: T3, α-IL12β heavy-LgBiT (SEQ ID NO: 161); experiment: NanoBiT, HC-LgBiT:LC-SmBiT:competing LC 1:1:1; competing kappa LC m12 (SEQ ID NO: 103)
[17] = biological target: T3, α-IL12β heavy-LgBiT (SEQ ID NO: 161); experiment: NanoBiT, HC-LgBiT:LC-SmBiT:competing LC 1:1:1; competing kappa LC m9 (SEQ ID NO: 100)
[18] = biological target: T3, α-IL12β heavy-LgBiT (SEQ ID NO: 161); experiment: NanoBiT, HC-LgBiT:LC-SmBiT:competing LC 1:1:1; competing kappa LC m6 (SEQ ID NO: 97)
[19] = biological target: T3, α-IL12β heavy-LgBiT (SEQ ID NO: 161); experiment: NanoBiT, HC-LgBiT:LC-SmBiT:competing LC 1:1:1; competing kappa LC m15 (SEQ ID NO: 106)
[20] = biological target: T4, α-TNFR10β heavy-hCHIg_Hole_Cys (SEQ ID NO: 177); experiment: intact MS of papain-cleaved multispecific molecule 4; Fab of this pairing observed (observed mass, Da)
T4 construct: full heavy chain, human Fc hole; Fab analysed after papain cleavage in the MS assay; also called α-TRAILR2 arm first chain; HCP1 of multispecific molecules 4, 6, 12

[21] = biological target: T5, α-CTLA4 heavy-hCHIg_Knob_Cys-GH_scFv (SEQ ID NO: 169); experiment: KappaSelect resin analysis of multispecific molecule 12, reduced gel; said to agree with lambda light chain pairing with the kappa heavy chain in molecule 4
T5 construct: full heavy chain, human Fc knob, C-terminal scFv; germline VH3-30*01; also called HCP2 of multispecific molecule 12

[22] = biological target: T6, α-CTLA4 heavy-hCHIg_Knob_Cys (SEQ ID NO: 168) (Homo sapiens (Human), UniProt P0DOX5 1-449 = IgG part); experiment: intact MS of papain-cleaved multispecific molecule 4; mispaired Fab observed (observed mass, Da)
T6 construct: full heavy chain, human Fc knob; Fab analysed after papain cleavage in the MS assay; germline VH3-30*01; also called HCP2 of multispecific molecules 3, 4, 5, 9

[23] = biological target: T7, α-CD221 heavy-hCHIg_Hole_Cys (SEQ ID NO: 180); experiment: intact MS of papain-cleaved multispecific molecule 5; Fab of this pairing observed (observed mass, Da)
T7 construct: full heavy chain, human Fc hole; Fab analysed after papain cleavage in the MS assay; germline VH1-69*01; also called HCP1 of multispecific molecule 5

B1: α-TRAILR2 light-SmBiT (SEQ ID NO: 147) (other)
light: SSELTQDPAVSVALGQTVRITCQGDSLRSYYASWYQQKPGQAPVLVIYGKNNRPSGIPDRFSGSSSGNTASLTITGAQAEDEADYYCNSRDSSGNHVVFGGGTKLTVLGQPKANPTVTLFPPSSEELQANKATLVCLISDFYPGAVTVAWKADGSPVKAGVETTKPSKQSNNKYAASSYLSLTPEQWKSHRSYSCQVTHEGSTVEKTVAPTECSGSSGGGGSGGGGSSGGVTGYRLFEEIL
notes: lambda light chain-linker-SmBiT; germline Vl3-19*01
- Percent pairing [1]: 81%
- Percent pairing [2]: 100%
- Percent pairing [3]: 84%
- Percent pairing [4]: 100%
- Percent pairing [5]: 100%
- Percent pairing [6]: 77%
- Percent pairing [7]: 100%

B2: α-activin receptors light-SmBiT (SEQ ID NO: 150) (other)
light: QSALTQPASVSGSPGQSITISCTGTSSDVGSYNYVNWYQQHPGKAPKLMIYGVSKRPSGVSNRFSGSKSGNTASLTISGLQAEDEADYYCGTFAGGSYYGVFGGGTKLTVLGQPKANPTVTLFPPSSEELQANKATLVCLISDFYPGAVTVAWKADGSPVKAGVETTKPSKQSNNKYAASSYLSLTPEQWKSHRSYSCQVTHEGSTVEKTVAPTECSGSSGGGGSGGGGSSGGVTGYRLFEEIL
notes: lambda light chain-linker-SmBiT; germline Vl2-14*01
- Percent pairing [8]: 75%
- Percent pairing [9]: 81%
- Percent pairing [10]: 100%
- Percent pairing [11]: 90%
- Percent pairing [12]: 87%
- Percent pairing [13]: 90%
- Percent pairing [14]: 79%

B3: α-IL12β light-SmBiT (SEQ ID NO: 162) (other)
light: QSVLTQPPSVSGAPGQRVTISCSGSRSNIGSNTVKWYQQLPGTAPKLLIYYNDQRPSGVPDRFSGSKSGTSASLAITGLQAEDEADYYCQSYDRYTHPALLFGTGTKVTVLGQPKANPTVTLFPPSSEELQANKATLVCLISDFYPGAVTVAWKADGSPVKAGVETTKPSKQSNNKYAASSYLSLTPEQWKSHRSYSCQVTHEGSTVEKTVAPTECSGSSGGGGSGGGGSSGGVTGYRLFEEIL
notes: lambda light chain-linker-SmBiT; germline Vl1-44*01
- Percent pairing [15]: 80%
- Percent pairing [16]: 100%
- Percent pairing [17]: 100%
- Percent pairing [18]: 100%
- Percent pairing [19]: 100%

B4: α-TRAILR2 light (SEQ ID NO: 148) (other)
light: SSELTQDPAVSVALGQTVRITCQGDSLRSYYASWYQQKPGQAPVLVIYGKNNRPSGIPDRFSGSSSGNTASLTITGAQAEDEADYYCNSRDSSGNHVVFGGGTKLTVLGQPKANPTVTLFPPSSEELQANKATLVCLISDFYPGAVTVAWKADGSPVKAGVETTKPSKQSNNKYAASSYLSLTPEQWKSHRSYSCQVTHEGSTVEKTVAPTECS
notes: unmodified lambda light chain; germline Vl3-19*01; also called LLCP of multispecific molecules 4, 6, 12
- binding result [20]: binds
- binding result [21]: binds
- binding result [22]: binds

B5: α-CD221 light (SEQ ID NO: 136) (other)
light: SSELTQDPAVSVALGQTVRITCQGDSLRSYYATWYQQKPGQAPILVIYGENKRPSGIPDRFSGSSSGNTASLTITGAQAEDEADYYCKSRDGSGQHLVFGGGTKLTVLGQPKANPTVTLFPPSSEELQANKATLVCLISDFYPGAVTVAWKADGSPVKAGVETTKPSKQSNNKYAASSYLSLTPEQWKSHRSYSCQVTHEGSTVEKTVAPTECS
notes: unmodified lambda light chain; germline Vl3-19*01; also called LLCP of multispecific molecule 5
- binding result [23]: binds
